Laboratory results reported in patent US20260070987A1.
Changes are numbered by the printed parent chain. Names and notes keep the numbering of the source.

B1: equine IgG4 M428C (antibody, part only; not given: variable domains, not shown: another chain or arm of the molecule)
constant: ASTTAPKVFPLASHSAATSGSTVALGCLVSSYFPEPVTVSWNSGALTSGVHTFPSVLQSSGLYSLSSMVTVPASSLKSQTYICNVAHPASSTKVDKKIVIKECNGGCPAECLQVGPSVFIFPPKPKDVLMISRTPTVTCVVVDVGHDFPDVQFNWYVDGVETHTATTEPKQEQFNSTYRVVSVLPIQHKDWLSGKEFKCKVNNKALPAPVERTISKPTGQPREPQVYVLAPHRDELSKNKVSVTCLVKDFYPTDIDIEWKSNGQPEPETKYSTTPAQLDSDGSYFLYSKLTVETNRWQQGTTFTCAVCHEALHNHYTEKSVSKSPGK
B2: equine IgG4 M428N (antibody, part only; not given: variable domains, not shown: another chain or arm of the molecule)
constant: B1 constant with C308N
B3: equine IgG4 N434K (antibody, part only; not given: variable domains, not shown: another chain or arm of the molecule)
constant: B1 constant with C308M, N314K
B4: equine IgG4 N434L (antibody, part only; not given: variable domains, not shown: another chain or arm of the molecule)
constant: B1 constant with C308M, N314L
B5: equine IgG4 N434E (antibody, part only; not given: variable domains, not shown: another chain or arm of the molecule)
constant: B1 constant with C308M, N314E
B6: equine IgG4 M428P (antibody, part only; not given: variable domains, not shown: another chain or arm of the molecule)
constant: B1 constant with C308P
B7: equine IgG4 M428V (antibody, part only; not given: Variable domains, not shown: another chain or arm of the molecule)
constant: B1 constant with C308V
B8: equine IgG4 M428I (antibody, part only; not given: variable domains, not shown: another chain or arm of the molecule)
constant: B1 constant with C308I
B9: equine IgG4 M428F (antibody, part only; not given: variable domains, not shown: another chain or arm of the molecule)
constant: B1 constant with C308F
B10: equine IgG4 M428E (antibody, part only; not given: variable domains, not shown: another chain or arm of the molecule)
constant: B1 constant with C308E
B11: equine IgG4 M428H (antibody, part only; not given: variable domains, not shown: another chain or arm of the molecule)
constant: B1 constant with C308H
B12: equine IgG4 M428T (antibody, part only; not given: variable domains, not shown: another chain or arm of the molecule)
constant: B1 constant with C308T
B13: equine IgG4 M428L (antibody, part only; not given: Variable domains, not shown: another chain or arm of the molecule)
constant: B1 constant with C308L
B14: equine IgG4 M428R (antibody, part only; not given: variable domains, not shown: another chain or arm of the molecule)
constant: B1 constant with C308R
B15: equine IgG4 M428D (antibody, part only; not given: Variable domains, not shown: another chain or arm of the molecule)
constant: B1 constant with C308D
B16: equine IgG4 M428G (antibody, part only; not given: variable domains, not shown: another chain or arm of the molecule)
constant: B1 constant with C308G
B17: equine IgG4 N434A (antibody, part only; not given: Variable domains, not shown: another chain or arm of the molecule)
constant: B1 constant with C308M, N314A
B18: equine IgG4 N434H (antibody, part only; not given: Variable domains, not shown: another chain or arm of the molecule)
constant: B1 constant with C308M, N314H
B19: equine IgG4 N434D (antibody, part only; not given: Variable domains, not shown: another chain or arm of the molecule)
constant: B1 constant with C308M, N314D
B20: equine IgG4 M428Y (antibody, part only; not given: variable domains, not shown: another chain or arm of the molecule)
constant: B1 constant with C308Y
B21: equine IgG4 M428S (antibody, part only; not given: variable domains, not shown: another chain or arm of the molecule)
constant: B1 constant with C308S
B22: equine IgG4 N434I (antibody, part only; not given: variable domains, not shown: another chain or arm of the molecule)
constant: B1 constant with C308M, N314I
B23: equine IgG4 M428Q (antibody, part only; not given: variable domains, not shown: another chain or arm of the molecule)
constant: B1 constant with C308Q
B24: equine IgG4 M428K (antibody, part only; not given: variable domains, not shown: another chain or arm of the molecule)
constant: B1 constant with C308K
B25: equine IgG4 M428W (antibody, part only; not given: variable domains, not shown: another chain or arm of the molecule)
constant: B1 constant with C308W
B26: equine IgG4 N434G (antibody, part only; not given: variable domains, not shown: another chain or arm of the molecule)
constant: B1 constant with C308M, N314G
B27: equine IgG4 N434F (antibody, part only; not given: variable domains, not shown: another chain or arm of the molecule)
constant: B1 constant with C308M, N314F
B28: equine IgG4 N434C (antibody, part only; not given: Variable domains, not shown: another chain or arm of the molecule)
constant: B1 constant with C308M, N314C
B29: equine IgG1 T286M (antibody, part only; not given: variable domains, not shown: another chain or arm of the molecule)
constant: ASTTAPKVFALAPGCGTTSDSTVALGCLVSGYFPEPVKVSWNSGSLTSGVHTFPSVLQSSGFYSLSSMVTVPASTWTSETYICNVVHAASNFKVDKRIEPIPDNHQKVCDMSKCPKCPAPELLGGPSVFIFPPNPKDTLMITRTPEVTCVVVDVSQENPDVKFNWYMDGVEVRMATTRPKEEQFNSTYRVVSVLRIQHQDWLSGKEFKCKVNNQALPQPIERTITKTKGRSQEPQVYVLAPHPDELSKSKVSVTCLVKDFYPPEINIEWQSNGQPELETKYSTTQAQQDSDGSYFLYSKLSVDRNRWQQGTTFTCGVMHEALHNHYTQKNVSKNPGK
B30: equine IgG1 T286P (antibody, part only; not given: variable domains, not shown: another chain or arm of the molecule)
constant: B29 constant with M174P

molecular target: equine FcRn (large alpha subunit p51) / equine beta-2-microglobulin complex, biotinylated (equine) (UniProt P30441); experiment: SPR (Biacore), pH 6
Sequence of UniProt P30441 (P30441 21-118, one chain of several): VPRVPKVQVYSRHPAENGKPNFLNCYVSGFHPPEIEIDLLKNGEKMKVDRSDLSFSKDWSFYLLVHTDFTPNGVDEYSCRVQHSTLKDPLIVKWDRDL

Row | Binder | Kd
1 | B1 | 53.2 nM
2 | B2 | 44.3 nM
3 | B3 | 42.8 nM
4 | B4 | 48.5 nM
5 | B5 | 71.3 nM
6 | B6 | 13000 nM
7 | B7 | 75.2 nM
8 | B8 | 49.5 nM
9 | B9 | 25.4 nM
10 | B10 | 40.8 nM
11 | B11 | 29.4 nM
12 | B12 | 71.8 nM
13 | B13 | 17.4 nM
14 | B14 | 93.1 nM
15 | B15 | 40.7 nM
16 | B16 | 31.5 nM
17 | B17 | 17.4 nM
18 | B18 | 5.2 nM
19 | B19 | 38.5 nM
20 | B20 | 30.8 nM
21 | B21 | 40.6 nM
22 | B22 | 40.6 nM
23 | B23 | 30 nM
24 | B24 | 46.2 nM
25 | B25 | 31 nM
26 | B26 | 21.2 nM
27 | B27 | 4.4 nM
28 | B28 | 113 nM
29 | B29 | 15.6 nM
30 | B30 | 14.6 nM
